# B1: 700DX-EGF (conjugate, UniProt P01133 23-1207, looked up)
# Pro-epidermal growth factor: PQHWSCPEGTLAGNGNSTCVGPAPFLIFSHGNSIFRIDTEGTNYEQLVVDAGVSVIMDFHYNEKRIYWVDLERQLLQRVFLNGSRQERVCNIEKNVSGMAINWINEEVIWSNQQEGIITVTDMKGNNSHILLSALKYPANVAVDPVERFIFWSSEVAGSLYRADLDGVGVKALLETSEKITAVSLDVLDKRLFWIQYNREGSNSLICSCDYDGGSVHISKHPTQHNLFAMSLFGDRIFYSTWKMKTIWIANKHTGKDMVRINLHSSFVPLGELKVVHPLAQPKAEDDTWEPEQKLCKLRKGNCSSTVCGQDLQSHLCMCAEGYALSRDRKYCEDVNECAFWNHGCTLGCKNTPGSYYCTCPVGFVLLPDGKRCHQLVSCPRNVSECSHDCVLTSEGPLCFCPEGSVLERDGKTCSGCSSPDNGGCSQLCVPLSPVSWECDCFPGYDLQLDEKSCAASGPQPFLLFANSQDIRHMHFDGTDYGTLLSQQMGMVYALDHDPVENKIYFAHTALKWIERANMDGSQRERLIEEGVDVPEGLAVDWIGRRFYWTDRGKSLIGRSDLNGKRSKIITKENISQPRGIAVHPMAKRLFWTDTGINPRIESSSLQGLGRLVIASSDLIWPSGITIDFLTDKLYWCDAKQSVIEMANLDGSKRRRLTQNDVGHPFAVAVFEDYVWFSDWAMPSVMRVNKRTGKDRVRLQGSMLKPSSLVVVHPLAKPGADPCLYQNGGCEHICKKRLGTAWCSCREGFMKASDGKTCLALDGHQLLAGGEVDLKNQVTPLDILSKTRVSEDNITESQHMLVAEIMVSDQDDCAPVGCSMYARCISEGEDATCQCLKGFAGDGKLCSDIDECEMGVPVCPPASSKCINTEGGYVCRCSEGYQGDGIHCLDIDECQLGEHSCGENASCTNTEGGYTCMCAGRLSEPGLICPDSTPPPHLREDDHHYSVRNSDSECPLSHDGYCLHDGVCMYIEALDKYACNCVVGYIGERCQYRDLKWWELRHAGHGQQQKVIVVAVCVVVLVMLLLLSLWGAHYYRTQKLLSKNPKNPYEESSRDVRSRRPADTEDGMSSCPQPWFVVIKEHQDLKNGGQPVAGEDGQAADGSMQPTSWRQEPQLCGMGTEQGCWIPVSSDKGSCPQVMERSFHMPSYGTQTLEGGVEKPHSLLSANPLWQQRALDPPHQMELTQ
# modifications: Pro-epidermal growth factor IRDye 700DX conjugate
# Key:
# Format in all cases: cell-based
# A431 cells [1] = assay: Caspase 3/7 assay, doses of IRDye 700DX-labeled EGF (Table 4)
# Method: A431 cells were treated with IRDye® 700DX-labeled EGF at a concentration of about 0.1-1 μM for about 8 minutes and irradiated at about 32 J/cm^2.
# Briefly, 150,000 cells were plated and incubated overnight at 37° C., 5% CO2. About 1 ml of the probe was added to the appropriate treatments. The cells were rinsed after the incubation period and imaged. The cells were irradiated with a small LED apparatus. The cells were further incubated at 37° C., 5% CO2, and then imaged at 2-3 hours post irradiation. The cells were then harvested and resuspended in 250 μl PBS. The cells were counted in NC-100™ NucleoCounter® (ChemoMetec A/S; Allerod, Denmark). The cells were analyzed according to manufacturer's protocol to perform the caspase3/7 assay (ImmunoChemistry Technologies, LCC, Bloomington, Minn.). NC indicates negative control, e.g., no probe.
# HTB-186 cells [2] = assay: Caspase 3/7 assay (Example 10, Table 8); conditions: 32 J/cm^2, probe about 5 hours, 20 hours post irradiation; 700DX-RGD and 700DX-EGF 500 nM
# Method: This example illustrates the ability of IRDye® 700DX small molecule conjugates to induce apoptosis in cells, e.g., cancer cells. In this study HTB-186 cells (a desmoplastic cerebellar medulloblastoma cell line) were treated with IRDye® 700DX small molecule conjugates (IRDye® 700DX labeled chlorotoxin, anti-EGFR Affibody®, RGD peptide and EGF ligand). Apoptosis was measured by evaluating caspase 3/7 activity and mitochondrial membrane potential. […]
# The caspase 3/7 assay was used to measure caspase 3/7 activity in the cells from the treatments listed above. […] Upon activation, the caspases cleave the substrate, and in turn, a fluorescence signal is emitted. […] The fluorescence can be detected by, for example, flow cytometry, fluorescence microscopy, and fluorescence-based image cytometry.
# To determine whether the treated cells are undergoing apoptosis, a caspase 3/7 assay and mitochondrial potential assay were performed. […] Table 8 below provides cells number, % viability, JC-1% shift, and % late apoptotic and dead cells as determined by caspase 3/7 assay.
# A431 cells [3] = assay: Cytotoxicity and localization of antibody probe versus small protein ligand probe after irradiation (Example 4)
# Method: Both probes can bind EGFR and had approximately 2 dye molecule per conjugate molecule. It was assumed that the affinity for the receptor will be different for the antibody (generally pM), compared to the small protein (nM). Although the probe doses were different, the incubation times were the same at only 10 min. After incubation, the probes were rinsed from the cells. FIGS. 7A and 7B illustrates A431 cells that were incubated with IRDye 700DX-panitumumab or IRDye 700DX-EGF, respectively and thereafter irradiated.
# Thus, upon irradiation, the production of singlet oxygen occurred at the cell surface. Typically, the EGF ligand is internalized after binding the EGF receptor.
# HTB-186 cells [4] = assay: Viability, cell number and microscopy morphology at 20 h post irradiation (Example 10)
# Method: This example illustrates the ability of IRDye® 700DX small molecule conjugates to induce apoptosis in cells, e.g., cancer cells. In this study HTB-186 cells (a desmoplastic cerebellar medulloblastoma cell line) were treated with IRDye® 700DX small molecule conjugates (IRDye® 700DX labeled chlorotoxin, anti-EGFR Affibody®, RGD peptide and EGF ligand). Apoptosis was measured by evaluating caspase 3/7 activity and mitochondrial membrane potential. Apoptosis can be characterized by a variety of cell morphological and biochemical changes including membrane blebbing, cell shrinkage, alteration of membrane asymmetry and permeability, and/or condensation of chromatin and nucleus (Coleman et al., Nat Cell Biol, 2001, 3(4):339-45, Bortner and Cidlowski, Biochem Pharmacol, 1998, 56(12):1549-59; van Engeland et al., Experimental Cell Research, 1997, 235:421-430).
# Microscopy images of cells in petri-dishes were captured at 20 h post irradiation. The images were captured in DIC and 700 nm to visualize the probe, and composite images were generated (DIC+700 nm) to visualize the overlay.
# To determine whether the treated cells are undergoing apoptosis, a caspase 3/7 assay and mitochondrial potential assay were performed. All cells from each treatment were recovered and processed accordingly. Table 8 below provides cells number, % viability, JC-1% shift, and % late apoptotic and dead cells as determined by caspase 3/7 assay.
# A431 cells [5] = assay: VB-48 assay: vitality, viability and necrosis of treatments 1-10 (Table 3); conditions: irradiated (I) 32 J/cm^2; RGD 0.5 μM, EGF 0.5 μM, NHSe 5 μM, Pan ~0.1 μM
# Method: Briefly, A431 cells were labeled with respective probes for specific treatments (listed below); cells were rinsed and evaluated for labeling. The test include the following treatments: […], treatments 3-4 of EGF-IRDye® 700DX at 0.5 μM and radiation, treatments 5-6 of IRDye® 700DX NHSe at 5 μM and radiation, treatments 7-8 of panitumumab-IRDye® 700DX at about 0.1 μM and radiation, treatment 9 of a negative control with no probe and no irradiation, and treatment 10 of RGD-IRDye® 700DX and no irradiation. The probes were incubated for about 10 minutes and with a longer period of about 20 minutes for the RGD probe. The cells were monitored with microscopy and morphology was examination 24 hours post treatment.
# Low binding was expected for the RGD probe due to the low level of integrin receptors on A431 cells. […] By 3 hours post-irradiation all treatments except RGD (Treatment 1) show significant cytotoxicity. Vitality, viability and necrosis assays such as a VB-48 assay and JC-1 assay were performed.
# [6] = 0.1 μM, Irradiation about 32 J/cm^2
# [7] = 0.25 μM, Irradiation about 32 J/cm^2
# [8] = 0.5 μM, Irradiation about 32 J/cm^2
# [9] = 1 μM, Irradiation about 32 J/cm^2
# [10] = 32 J/cm^2, probe about 5 hours, 20 hours post irradiation, 700DX-RGD and 700DX-EGF 500 nM
molecule,measurement,setting,value
B1,% Healthy,A431 cells [1]; [6],72%
same,% Necrotic,A431 cells [1]; [6],10%
same,Cells/mL,A431 cells [1]; [6],4.6 × 10^5 Cells/mL
same,Early % Apoptotic,A431 cells [1]; [6],8%
same,Late % Apoptotic,A431 cells [1]; [6],11%
same,% Healthy,A431 cells [1]; [7],61%
same,% Necrotic,A431 cells [1]; [7],16%
same,Cells/mL,A431 cells [1]; [7],4.8 × 10^5 Cells/mL
same,Early % Apoptotic,A431 cells [1]; [7],5%
same,Late % Apoptotic,A431 cells [1]; [7],18%
same,% Healthy,A431 cells [1]; [8],52%
same,% Necrotic,A431 cells [1]; [8],17%
same,Cells/mL,A431 cells [1]; [8],4 × 10^5 Cells/mL
same,Early % Apoptotic,A431 cells [1]; [8],6%
same,Late % Apoptotic,A431 cells [1]; [8],26%
same,% Healthy,A431 cells [1]; [9],52%
same,% Necrotic,A431 cells [1]; [9],15%
same,Cells/mL,A431 cells [1]; [9],4 × 10^5 Cells/mL
same,Early % Apoptotic,A431 cells [1]; [9],9%
same,Late % Apoptotic,A431 cells [1]; [9],24%
same,% Healthy,"A431 cells [1]; 1 μM, No Irradiation",87%
same,% Necrotic,"A431 cells [1]; 1 μM, No Irradiation",3%
same,Cells/mL,"A431 cells [1]; 1 μM, No Irradiation",5.4 × 10^5 Cells/mL
same,Early % Apoptotic,"A431 cells [1]; 1 μM, No Irradiation",6%
same,Late % Apoptotic,"A431 cells [1]; 1 μM, No Irradiation",4%
same,mode of cell death,A431 cells [1]; irradiating light at about 32 J/cm^2,undergo apoptosis
same,Caspase 3 % late apoptotic + dead cells,HTB-186 cells [2],46%
same,dead irradiated cells,"A431 cells [3]; 10 min incubation, panitumumab probe about 0.1 μM, EGF probe 0.5 μM, 24 hours post irradiation",36%
same,necrotic cells after irradiation,A431 cells [3]; irradiation 24 J/cm^2 (figure legend),36%
same,cell morphology,"HTB-186 cells [4]; 32 J/cm^2, 20 h post irradiation",appeared rounded and smaller
same,% Viability,HTB-186 cells [4]; [10],75.7%
same,Cell #,HTB-186 cells [4]; [10],0.7E6
same,% Healthy,A431 cells [5],60%
same,% Necrotic,A431 cells [5],20%
same,Cells/mL,A431 cells [5],3.4 × 10^5 Cells/mL
same,Est % Viability,A431 cells [5],60-70%
same,Low % Vitality,A431 cells [5],19%
